# Publication PMC7327521 (Journal of Molecular Biology, 2020)
# Square brackets hold non-standard residues; d marks the D form. Ends that are not written are not given here. pY = N[C@@H](Cc1ccc(OP(=O)(O)O)cc1)C(=O)O
# T1: tandem SH2 domain of C. glabrata Spt6 (Spt6-tSH2) (C. glabrata, UniProt Q6FLB1 1250-1444)
# T1 sequence (looked up): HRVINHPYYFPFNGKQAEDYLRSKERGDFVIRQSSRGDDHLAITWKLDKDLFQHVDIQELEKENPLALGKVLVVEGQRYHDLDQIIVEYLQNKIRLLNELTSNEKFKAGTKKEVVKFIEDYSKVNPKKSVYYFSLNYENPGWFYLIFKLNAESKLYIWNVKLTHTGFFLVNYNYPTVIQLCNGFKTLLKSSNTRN
# T2: Spt6-tSH2 K1434A (C. glabrata, UniProt Q6FLB1 1250-1444, K1434A)
# T2 sequence (looked up): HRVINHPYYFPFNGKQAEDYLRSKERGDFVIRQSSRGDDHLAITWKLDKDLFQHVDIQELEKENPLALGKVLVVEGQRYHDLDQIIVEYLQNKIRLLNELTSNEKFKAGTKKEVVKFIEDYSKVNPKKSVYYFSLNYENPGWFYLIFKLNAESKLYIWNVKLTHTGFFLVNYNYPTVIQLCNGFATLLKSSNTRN
# T3: Spt6-tSH2 K1354E (C. glabrata, UniProt Q6FLB1 1250-1444, K1354E)
# T3 sequence (looked up): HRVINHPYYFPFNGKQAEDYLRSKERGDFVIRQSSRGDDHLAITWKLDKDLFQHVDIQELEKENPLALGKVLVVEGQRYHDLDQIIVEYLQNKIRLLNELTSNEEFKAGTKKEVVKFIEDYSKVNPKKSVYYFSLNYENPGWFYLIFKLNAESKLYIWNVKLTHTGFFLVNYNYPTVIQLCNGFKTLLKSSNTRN
# T4: Spt6-tSH2 R1281A/R1285A (C. glabrata, UniProt Q6FLB1 1250-1444, R1281A | R1285A)
# T4 sequence (looked up): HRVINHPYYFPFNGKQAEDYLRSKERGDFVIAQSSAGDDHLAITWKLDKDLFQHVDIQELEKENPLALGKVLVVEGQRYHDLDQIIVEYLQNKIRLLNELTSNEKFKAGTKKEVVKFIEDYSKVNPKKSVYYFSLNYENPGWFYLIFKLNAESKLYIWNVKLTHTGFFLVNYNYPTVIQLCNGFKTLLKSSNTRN
# T5: Spt6-tSH2 R1281A (C. glabrata, UniProt Q6FLB1 1250-1444, R1281A)
# T5 sequence (looked up): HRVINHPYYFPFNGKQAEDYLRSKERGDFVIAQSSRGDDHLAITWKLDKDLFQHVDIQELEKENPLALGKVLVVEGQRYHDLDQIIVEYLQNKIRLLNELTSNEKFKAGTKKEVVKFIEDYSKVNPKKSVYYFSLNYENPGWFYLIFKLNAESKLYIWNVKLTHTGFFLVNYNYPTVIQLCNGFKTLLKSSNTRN
# T6: Spt6-tSH2 K1360A (C. glabrata, UniProt Q6FLB1 1250-1444, K1360A)
# T6 sequence (looked up): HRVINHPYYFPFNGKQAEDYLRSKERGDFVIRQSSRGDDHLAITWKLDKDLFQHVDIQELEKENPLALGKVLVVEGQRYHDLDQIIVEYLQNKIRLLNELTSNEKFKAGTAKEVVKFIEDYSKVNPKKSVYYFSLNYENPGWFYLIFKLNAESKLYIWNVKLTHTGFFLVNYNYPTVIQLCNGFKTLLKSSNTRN
# T7: Spt6 from S. cerevisiae lacking the first unstructured 297 residues (Spt6ΔN) (S. cerevisiae, UniProt P23615 298-1451)
# T7 sequence (looked up): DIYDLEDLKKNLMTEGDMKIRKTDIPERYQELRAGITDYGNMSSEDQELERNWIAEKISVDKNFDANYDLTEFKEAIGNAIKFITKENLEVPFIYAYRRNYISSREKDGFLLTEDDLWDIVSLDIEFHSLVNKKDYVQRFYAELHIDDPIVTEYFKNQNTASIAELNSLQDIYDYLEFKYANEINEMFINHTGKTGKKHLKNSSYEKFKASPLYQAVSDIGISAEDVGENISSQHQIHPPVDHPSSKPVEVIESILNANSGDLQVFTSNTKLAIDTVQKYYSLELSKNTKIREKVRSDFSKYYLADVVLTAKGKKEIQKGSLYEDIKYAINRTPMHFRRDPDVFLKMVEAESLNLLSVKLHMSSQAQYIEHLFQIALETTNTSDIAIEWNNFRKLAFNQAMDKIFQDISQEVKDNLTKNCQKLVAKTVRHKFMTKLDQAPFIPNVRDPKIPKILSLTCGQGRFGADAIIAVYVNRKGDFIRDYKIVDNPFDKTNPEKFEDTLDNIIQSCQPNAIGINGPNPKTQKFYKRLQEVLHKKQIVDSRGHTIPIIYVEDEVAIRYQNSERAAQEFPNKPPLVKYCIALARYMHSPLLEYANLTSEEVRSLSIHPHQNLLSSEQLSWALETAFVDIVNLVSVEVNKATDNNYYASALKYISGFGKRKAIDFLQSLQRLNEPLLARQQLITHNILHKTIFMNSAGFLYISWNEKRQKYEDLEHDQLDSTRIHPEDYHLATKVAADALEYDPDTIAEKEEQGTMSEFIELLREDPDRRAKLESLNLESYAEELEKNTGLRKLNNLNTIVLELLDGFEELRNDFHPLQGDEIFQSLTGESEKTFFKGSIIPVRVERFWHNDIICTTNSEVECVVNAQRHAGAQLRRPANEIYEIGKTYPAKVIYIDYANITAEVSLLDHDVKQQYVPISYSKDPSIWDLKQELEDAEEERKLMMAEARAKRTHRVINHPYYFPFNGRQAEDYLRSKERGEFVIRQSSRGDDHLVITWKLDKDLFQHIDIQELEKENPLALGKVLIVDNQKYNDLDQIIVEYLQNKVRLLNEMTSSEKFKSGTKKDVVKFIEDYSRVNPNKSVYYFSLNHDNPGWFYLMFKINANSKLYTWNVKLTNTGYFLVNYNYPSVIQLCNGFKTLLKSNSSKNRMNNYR
# How the values were obtained:
# Assay in all cases: fluorescence polarisation
# [1] = biological target: T1, tandem SH2 domain of C. glabrata Spt6 …
# Spt6-tSH2 K1434A = biological target: T2, Spt6-tSH2 K1434A
# Spt6-tSH2 K1354E = biological target: T3, Spt6-tSH2 K1354E
# Spt6-tSH2 R1281A/R1285A = biological target: T4, Spt6-tSH2 R1281A/R1285A
# Spt6-tSH2 R1281A = biological target: T5, Spt6-tSH2 R1281A
# Spt6-tSH2 K1360A = biological target: T6, Spt6-tSH2 K1360A
# [2] = biological target: T7, Spt6 from S. cerevisiae lacking the …
binder,measurement,setting,value
"{5,6‑FAM}-PS[pY]SPTSPS[pY]SPTSPS [(pY1-CTD)2, FAM-labelled tyrosine-phosphorylated CTD diheptad]",Kd,[1],5.1 µM
same,Kd,Spt6-tSH2 K1434A,24 µM
same,Kd,Spt6-tSH2 K1354E,16.3 µM
same,Kd,Spt6-tSH2 R1281A/R1285A,11.6 µM
same,Kd,Spt6-tSH2 R1281A,17.6 µM
same,Kd,Spt6-tSH2 K1360A,12.4 µM
same,Kd,[2],4 ± 0.5 µM
